Our source for the EC50 values is US20100008909A1 (ZymoGenetics, published 2010).

Several values for one entry are separate records, joined by “and”; a condition that tells them apart may be missing. Equal values may be shown once.

The target in this test is T1, biotinylated IL31 (human, UniProt Q6EBC2 24-164, biotinylated (sites not given)).
T1 construct: also called human IL-31; huIL-31
T1 sequence: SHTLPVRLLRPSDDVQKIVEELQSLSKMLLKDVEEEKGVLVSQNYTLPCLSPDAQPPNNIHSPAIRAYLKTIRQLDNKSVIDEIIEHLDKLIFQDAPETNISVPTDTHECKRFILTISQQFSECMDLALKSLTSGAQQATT
Nature of the test: ELISA with a dilution series of biotinylated IL31, 4-parameter fit (apparent Kd/EC50 as IL31 concentration); parental mouse mAb as control; average of duplicate. The source says:
The assay format utilized a goat anti-human Fc immobilization for capture of human monoclonal antibodies from unprocessed cell culture conditioned media. A dilution series of biotinylated IL31 tested the “C” parameter of a 4-parameter fit which results in the apparent Kd (or EC50) in either ng/mL or nM of IL31. The assay sensitivity is high enough that dilute monoclonal antibody or chimeric antibody cell culture conditioned media can be evaluated. The Kd determined by this method generally approaches the Kd measured for purified, homogeneous monoclonal antibodies measured using Biacore.
(In general: An ELISA detects its analyte on a solid surface through an enzyme-linked reagent.)

B1: 292.63.5.3 (Lot E9289) Control monoclonal antibody (antibody, V domains shown)
VH: EVQLVESGGDLVKPGGSLKLSCAASGFTFSTFIMSWVRQSPEKRLEWVATINSGGYYTFHPDSVKGRFTISRDNAKNTLYLQMSSLRSEDTAIYYCARQEGWSSAYFSWGQGTLVTVSA
VL: DIVMTQSPSSLDMSEGQKVTMICKSSQSLLNGSNQKNYLAWYQQKPGQSPKLLVSFASTRDSGVPDRFIGSGSGTDFTLTITNVQAEDLADYFCQQHYDTPYTFGGGKLEIR
notes: Mouse anti-human IL-31 hybridoma monoclonal antibody
With B1, the EC50 (as a rule, the concentration needed to bring the measured effect to its halfway point) is 0.0043 µg/mL and 0.26 nM.
